Reference: PMC6606567, “Molecular tuning of farnesoid X receptor partial agonism” (Nature Communications, 2019)

What was measured:
[1] = biological target: farnesoid X receptor ligand binding domain (FXR-LBD; isoform 4; amino acids 244-472) (human); assay: NMR titration; HSQC of the quaternary mixture of FXR-LBD, antagonist guggulsterone, labeled co-activator (NCoA) and co-repressor (NCoR) peptides; protein:peptide:ligand 50:50:250 µM, 298 K
[2] = biological target: farnesoid X receptor ligand binding domain (FXR-LBD; isoform 4; amino acids 244-472) (human); assay: NMR titration; 1H/13C-HSQC of Leu-labeled NCoR and NCoA peptides (50 µM) with FXR-LBD (50 µM) and CDCA (250 µM); 298 K, 50 mM Tris pH 8.3, 500 mM NaCl, 2 mM TCEP; populations from signal intensities
[3] = biological target: farnesoid X receptor ligand binding domain (FXR-LBD; isoform 4; amino acids 244-472) (human); assay: NMR titration; 1H/13C-HSQC of Leu-labeled NCoR and NCoA peptides (50 µM) with FXR-LBD (50 µM) and GW4064 (250 µM); 298 K, 50 mM Tris pH 8.3, 500 mM NaCl, 2 mM TCEP; populations from signal intensities
[4] = biological target: farnesoid X receptor ligand binding domain (FXR-LBD; isoform 4; amino acids 244-472) (human); assay: NMR titration; 1H/13C-HSQC of Leu-labeled NCoR and NCoA peptides (50 µM) with FXR-LBD (50 µM) and fexaramine (250 µM); 298 K, 50 mM Tris pH 8.3, 500 mM NaCl, 2 mM TCEP; populations from signal intensities
[5] = biological target: farnesoid X receptor ligand binding domain (FXR-LBD; isoform 4; amino acids 244-472) (human); assay: NMR titration; 1H/13C-HSQC of Leu-labeled NCoR and NCoA peptides (50 µM) with FXR-LBD (50 µM) and ivermectin (250 µM); 298 K, 50 mM Tris pH 8.3, 500 mM NaCl, 2 mM TCEP; populations from signal intensities
[6] = biological target: farnesoid X receptor ligand binding domain (FXR-LBD; isoform 4; amino acids 244-472) (human); assay: NMR titration; 1H/13C-HSQC of Leu-labeled NCoR and NCoA peptides (50 µM) with FXR-LBD (50 µM) and partial agonist 1 (250 µM); 298 K, 50 mM Tris pH 8.3, 500 mM NaCl, 2 mM TCEP; populations from signal intensities
[7] = biological target: the molecule itself; assay: crystal structure; FXR244-472 (75 µM) incubated with 150 µM partial agonist 1 (DM175), concentrated to 375 µM, then 750 µM NCoA-2 740-752 peptide; hanging drop, 4 °C, 300 mM MgCl2, 100 mM Bis-Tris pH 7, 15-20% PEG 3350, micro seeding

Molecule “Nuclear receptor co-activator 2 peptide (NCoA-2 740-752)” has a free co-repressor/free co-activator ratio (part of free co-activator) [1] of 85, a free co-repressor/free co-activator ratio (part of free co-activator) [2] of 13 and a free co-repressor/free co-activator ratio (part of free co-activator) [3] of 14. It also gave a free co-repressor/free co-activator ratio (part of free co-activator) [4] of 23, a free co-repressor/free co-activator ratio (part of free co-activator) [5] of 75 and a free co-repressor/free co-activator ratio (part of free co-activator) [6] of 70.

With “nuclear receptor co-repressor 1 peptide (NCoR-1, residues 2256-2278)” the free co-repressor/free co-activator ratio (part of free co-repressor) [1] was 15, the free co-repressor/free co-activator ratio (part of free co-repressor) [2] was 87 and the free co-repressor/free co-activator ratio (part of free co-repressor) [3] was 86. It also gave a free co-repressor/free co-activator ratio (part of free co-repressor) [4] of 77, a free co-repressor/free co-activator ratio (part of free co-repressor) [5] of 25 and a free co-repressor/free co-activator ratio (part of free co-repressor) [6] of 30.

B1: farnesoid X receptor ligand binding domain (FXR-LBD; isoform 4; amino acids 244-472) (domain or fragment, human)
chain: ELTPDQQTLLHFIMDSYNKQRMPQEITNKILKEEFSAEENFLILTEMATNHVQVLVEFTKKLPGFQTLDHEDQIALLKGSAVEAMFLRSAEIFNKKLPSGHSDLLEERIRNSGISDEYITPMFSFYKSIGELKMTQEEYALLTAIVILSPDRQYIKDREAVEKLQEPLLDVLQKLCKIHQPENPQHFACLLGRLTELRTFNHHHAEMLMSWRVNDHKFTPLLCEIWDVQ
notes: numbers count on: isoform 4; also called FXR244-472; NR1H4; source: E. coli BL21(DE3) gold, purified (NiNTA, Tev cleavage, Superdex 200); not shown: His6, N-terminal, cleaved
B1: binds [7].
